Consider 20 sequences from the DeepSol protein solubility set.

The nature of the series: soluble on expression in E. coli; label from the status in PepcDB or PDB records.
On to “VSDGEQAKSRRRRGRRRGRRAAATAENHMDAQPAGDATPTPATAKRSRSRSPRRGSTRMRTVHETSAGGLVIDGIDGPRDAQVAALIGRVDRRGRLLWSLPKGHIELGETAEQTAIREVAEETGIRGSVLAALGRIDYWFVTDGRRVHKTVHHYLMRFLGGELSDEDLEVAEVAWVPIRELPSRLAYADERRLAEVADELIDKLQSDGPAALPPLPPSSPRRRPQTHSRARHADDSAPGQHNGPGPGP”, for which the “soluble on expression in E. coli” value is reported as “not soluble”. As for “MEAVAEHDFQAGSPDELSFKRGNTLKVLNKDEDPHWYKAELDGNEGFIPSNYIRMTECNWYLGKITRNDAEVLLKKPTVRDGHFLVRQCESSPGEFSISVRFQDSVQHFKVLRDQNGKYYLWAVKFNSLNELVAYHRTASVSRTHTILLSDMNVETKFVQALFDFNPQESGELAFKRGDVITLINKDDPNWWEGQLNNRRGIFPSNYVCPYNSNKSNSNVAPGFNFGN”, the “soluble on expression in E. coli” value is reported as “not soluble”. For the sequence “MRKGLLAALLLLSACQVLEGSGYRVTEVQFLFPEATERWTYFYGEPRVVELDGRPLRLEAPQGENLWAFPGALWVEGSPVLRATYPSRPPVAEAVRGVSGSLLQVRAQAPLLATWLYDGVGWVRLTGSLREGEERTLVQPANYQTPRLFPLTEEESAVVLREVLARRGGKPVVVFELREPPLPPLRLSPAPDAYRIARLQVQYGLRLEPVMPPAPIFRVLGQGTQAAYQEEAPLALLANDPTSFNRLWALAVGNQLPRPAAPAVDFRNRSVAAFFWGLKPTGGYGLKVVGVTYAGERARVVLSLGAPKPGAITTQALTSPYVVLELQKVRRVVFADTSGKVLAEARD”, the “soluble on expression in E. coli” value is “soluble”. Take “MGSDKIHHHHHHMYGNKIVFSGLENIKDCCKMKITRDELLIAAFKLFMSVNYEKASFAELGKMLGMSKAGIFKYYKNKQELFIAVVDKFWFSTQNPRNKFTETNGTFAEFIDEYVRGVQRTMDMLGDLIGAEREKVAQGKFTYHAQYFHFLFQLLQYDPDAKEKLRNLVEVDYAYWRAAIQRAIATGELREDVDVEDAVVMFRQVYMGLSFEMAFMGGLNTQRLAKHLHAVYSLLKR”: the “soluble on expression in E. coli” value is given as “not soluble”. “MSEKFEHYYTVEPTSKLKVREARLVLKNGHEYIFKTPSGVYSYGKIDKATQVLLENLKVHGKKVLDLGCGYGVIGIVLKKEYPDLEVYMSDINKRAVEFAKINAKDHNVEVDIRWGNLYEPWEDMKFDMIVCNPPIVAGKKVWMEIVKSAPEFLEEGGSLQIVAYHNKGGRRIRDFMKEVFGNVEELCKTGGIRVYRSVKGLKEDEDNAE”: the “soluble on expression in E. coli” value was “not soluble”. As for “MGSDKIHHHHHHMAKGLFDRYIWLIDTIYRAGKITFEEINKRWLRTEMSNGEEIPLRTFHNHRKAIETMFDINIECNKRAGYYYYIENADDIDKDKIKKWLLNTFAINNLANESHRLKQRILFEDIPSGKQYLSSIIEAMLENRIIEITYQSYWKEEANTFTIEPFCVKVFKQRWYIIARSPYYDTIMIYALDRIQNLQVTDITFNYPSDFDPQSYFEFSFGIVVDEICNIDKIRIKVYGKKCQYIKALPLHHSQSEVETTKSYSIFEYLLKPTYDFCQELLSHGDEIEVLSPTSLKEQIKEIVKNMSRYYN”, the “soluble on expression in E. coli” value was “not soluble”. “MGSDKIHHHHHHMNRESMRPQFAPARSPSDVAMISRHIEAGVHRLPRAPHHRVMVHASAATRSYCNQVGRYFVRRAGDIDLVPAGEEGGFEAETAFDTVEIVLPPALMERVAAELGGRALVSRLDTRHLLRDQRIEHLARALQNDLDAGAPSGSLFADSIGAALAVRLLGVDDDIDIERTNRLSDTQLKRVLEHIEAALHEPLSIDRLARVAGASSSHLRTWFKVATGVTLHRYVLRRRVERARLLLERGDLSTSEVAELTGFAHQSHLAHWMRREIGQTPRDVRRARPPK”: the “soluble on expression in E. coli” value was “not soluble”. Turning to “MGSDKIHHHHHHMKHSRTAAAKRKTGVFARLADLYTRMEQEYSDKARAAGLTCAGCPDNCCTSYFQHHTHVEWLYLWRGMNRLPEARRAAYLARAKDVVEQSRDLLARGIRPRLMCPVNDDGLCGIYEHRLMICRMHGTRNVLALPDGGLRSFSGCFRFVECTAGQQAEAVPTVDRTPYYRELAALEMEHVGPRLKKLPRVDLTLAEMLFYGPPKL”, the “soluble on expression in E. coli” value is “not soluble”.

With “MELLLSKVTDAGIDPSSVSGEEAITLWEHIGRHIASTSREKAHCLIISAEYRREIKQLCDSIEELRQALELLSLPEDVEDILSVKASLSERLVEVGDYNSALTEYIASTNIAVEYGFIDEYVLAIIGMGNLCDAYGDHNRALRYYQKIDAIDHAISSRSLRLRYKLYMLACYISLKRVAEASELLGECEELSILVSDKNLAAQTHLYRAKLHRLQEEYSEALLSISSIKYTTGSATTYWLSTMVKIETAYCLNGVGHTSLANLLLESIGKRIKKHSSPILAKRFYNAMSKVSASQGQFQQALSCEKRAFRIESDLIKHIPISELGAAQLRRLSRFELQLKLILSEIENKEL”, the “soluble on expression in E. coli” value is listed as “not soluble”.

In the case of “MKRLWQHCHAATLKGGKYSIVEDAALVTDGPLIHWIGPRAELPPGDYAERIDLGGAWLTPGLIDCHTHAVFGGNRSGEFEQRLEGVSYAEIAAAGGGIASTVRATREASEEELLASARKRLEPLLRDGVTALEIKSGYGLDLASERKMLRVIRRLGERLPATVRSTCLAAHALPPEYAGRADDYIEHICSTMLPALAGEGLVDAVDAFCEHLAFSPAQVERVFIAARELGLPVKLHAEQLSSLHGSSLAARYRALSADHLEYMTEDDARAMGEAGTVAVLLPGAFYLLRETQLPPIDALRRHGVAMAIASDLNPGTSPALSLRLMLNMACTLFRLTPEETLAGVTLHAARALGLEASHGSLEVGKLADFVAWDIERPAELAYWLGGDLPKRVIRHAEEVYRG”, the “soluble on expression in E. coli” value is “not soluble”.

Take “MGHHHHHHMEARNMTPFTYFSLPMQKLFLRNQAAVRNKPYAKYFRSEMRVPLSAVRKIQQGPMALEDTLTPSIEDINRLLEPDFVSEESGYALLPGPMAYVQSRKFFPGCTAQMFKWWFIWHPAESERYTLWFPYAHVSNPCVHHQRLRDESLSFEERLYGNTFCASEYVGDRLMHLHIDFQQPASLGLNTDLYREAKIDGSVSALMSLADHPEVPVSLMVHLFKEVPDGMYLTSRYWVGAHPSMARFPGAEKAASLLKENGFGEAELETLAYEFAVHDMCEFNHLASFLPDLYREFGTPAA”: the “soluble on expression in E. coli” value was “soluble”. “MSDDIFRLATVEDASELLKLVNSAFQPIRQLDIDWPSTRADIQMVSENIEHHSAIVLERDGKLISTITIRFPWESETPPSKYPFVWWFATLPEYKGQGAGSKLLTYVEEKVLRDMLKAPALTLGTSARKHPWLADMYRRRGYEVYFEQEKDGDIGVMMHKVLIPERFNPTLLGAPSWA”: the “soluble on expression in E. coli” value is “soluble”. “MTVPLTTRDRIALIPIAEIHILNPRTRNKKIHHELIENIKTVGLKRPITVSRRVSTQGSFNYDLVCGQGRLEAFLALEATEIPAFVIDSAEEDCLVMSLVENVARRQHRPIDLMNEVGRLKGRGKTDAEIATIIGSTSSWVNMIVNLIERGEEKLLSAVETGLIPLSMATDIARSSESDIQDLLTDAYERGIRGKKITKLRHLLELRAKKDKLVRGNPLGVSQNKKKRLTPTDLRHLFEREAERQRLMVKKAAFTHDRVVFSIQAIKELLAVSDFEKLLSTEHLDSMPKLIQARLSNRGGL”: the “soluble on expression in E. coli” value was “not soluble”. For the sequence “AAKRMKKRIKSATFFTTLLDFSQPGEVGAYINDTIISAIETQNNAKGYMDGRSLSVTFSLLRENSLYWNYYVDNYLKGNSPVDFDLLYWNSDSTNVSAASHNFLLRELYLENKLVQDKGVKIGGVWIDLNKIKIPSYFVSTKEDHIALWQGTYRGALHTGGNKTFVLGESGHIAGIVNHPAKNKYGYWLNDTLDDS”, the “soluble on expression in E. coli” value is “not soluble”. To “MAHHHHHHMNAVDAEYVEHHGVDNLIIPISVSEPKETKRGDYAYCVDVVVHTLLIKKCSRGHRLLEHLTEKLVTLSIEWIRSECGVQLLPRSCRIAGNPLYFDDTVDTPKSIASIIENAAELLQRKSNSSNSRKDEQDTIPDALNLRKAQVPESKQPLIREVISTPAIKKGFLVDGNARLYGPDGSSEGSSKAPDPLAHIPESLRERCRIIDTRNMEGLTASPAKTMKSVDKTANTHTSGTFVAPTSEPQGKDEANWARFSIERTGEKVIVRFLAPDSVSSLHDIDLSATKDTLEINGSVTQLPVPIVTDDVRAKFVKATRILVVTCLIDVS” belongs “not soluble”; to “MTSRSNSGPGIQRRRGAIKHARVHEIRGHQFVATFFRQPHFCSLCSDFMWGLNKQGYQCQLCSAAVHKKCHEKVIMQCPGSAKNTKETMALKERFKVDIPHRFKTYNFKSPTFCDHCGSMLYGLFKQGLRCEVCNVACHHKCERLMSNLCGVNQKQLSEMYHEIKRGTHATASCPPNIANLHLNGETSKNNGSLPNKLKNLFKSHQYSVEEQKETDEYMDNIWGGGDGPVKKFALPHFNLLKVLGKGSFGKVMLVELKGKNEFYAMKCLKKDVILEDDDTECTYIERRVLILASQCPFLCQLFCSFQTNEYLFFVMEYLNGGDLMHHIQQIKKFDEARTRFYACEIVVALQFLHTNNIIYRDLKLDNVLLDCDGHIKLADFGMAKTEMNRENGMASTFCGTPDYISPEIIKGQLYNEAVDFWSFGVLMYEMLVGQSPFHGEGEDELFDSILNERPYFPKTISKEAAKCLSALFDRNPNTRLGMPECPDGPIRQHCFFRGVDWKRFENRQVPPPFKPNIKSNSDASNFDDDFTNEKAALTPVHDKNLLASIDPEAFLNFSYTNPHFSK”, “not soluble”; to “MGSDKIHHHHHHARPLSDVLNDVAARFQVRLKYDVDTVGRVLPYADFRIRPYSLEETLTNVLSPFDYKFVKQSDKVYKLKPYEYARRTDADGEKMLAYLSGLYSDKSQWEQRREILRKEVRQRLGLDDMLGKTVKDAKPVLSKIRKFDGYTVQNFALETLPGLYVCGSVYAPRTKGKHALIICPNGHFGQGRYRKDQQQRMATLARMGAVCVDYDLYGWGESALQVGGKAHHTADAHTIQAMNGIWILDYMLANRKDIDPACIGVNGGSGGGTQTVLLTVLDDRFTAAAPVVSLASHFDGGCPCESGKPIQLAGGGTCNAELAALFAPRPMLVVSDGGDWTATVPRLEYPYLQRIYGFYGATDKVSNVHLPQERHDFGPNKRNAVYDFFIDVFGLDRNMLDESKVTIEPEDALKSFGEKGEKLPAGALRYKE”, “not soluble”. To “MEESRADGRNPNQLRPFSCTRNPLDRAHGSARWAQGDTIVLAAVYGPKPGTRKGENPEKASIEVVWKPMTGQIGKQEKEYEMTLKRTLQSICLLTVHPNTTTSVILQVVGNDGSLLPCAINACCAALVFAGIPLKHLAVAIGCGVLEDGEVILDTNKAEEQQLKSFAHLVFPNSRKSASSKEPNQKEEDSERGLITSITHGVMSEEDYFSCIERGLAASSRISDFMRTTLQKQAPGDVLEHHHHHH” belongs “soluble”; to NLSVYNVQATNIPPKETLVYTKQTQTT, “soluble”. Regarding “MGSDKIHHHHHHMDIDRTILVQIQGLLVFESPLHHDERGYFLENWRKKDLLANGVPESFFHHKLQNNVSVSKQGVIRGMHCQGYEKLMTVAYGTFKMIFIDLRIDSPTYKSVDVIDVQPGRAVFVPGGVANGAQSLVNNGILNYLVADYYDPHKNYLGITPLDKDANLSWDSLLKPIISEKDQAAKSFKEVLEIIESSKKKVALIGSTGAVGKVLFDTLRKQSDIDLSCFNRNNIEEALKDFYDMVICTAPSSEKLLTNLSLKNDDAEIEKLVNVLKNIQTGHMILVSTKSVFDSGARYSAIHQKIYNSVIEAHQNSNTIYIMDTLYGKTLKKGFINDLLSRQWTYISNDIVLDKPELENYYQKVNDQLWSLVEPLPNELLSTLEPISDIYPDEMCYQVTAINDLVSHLMANLNRIDGVKLGIDKSEIFTGRQIKNLLKNPDNSTLGRYFKKQEGDFNLENL”, the “soluble on expression in E. coli” value is reported as “not soluble”.
